# Patent publication US20260308269 (published 2026)
# Changes are numbered by the printed parent chain.
# T1: human CD98hc (human)
# T1 chain: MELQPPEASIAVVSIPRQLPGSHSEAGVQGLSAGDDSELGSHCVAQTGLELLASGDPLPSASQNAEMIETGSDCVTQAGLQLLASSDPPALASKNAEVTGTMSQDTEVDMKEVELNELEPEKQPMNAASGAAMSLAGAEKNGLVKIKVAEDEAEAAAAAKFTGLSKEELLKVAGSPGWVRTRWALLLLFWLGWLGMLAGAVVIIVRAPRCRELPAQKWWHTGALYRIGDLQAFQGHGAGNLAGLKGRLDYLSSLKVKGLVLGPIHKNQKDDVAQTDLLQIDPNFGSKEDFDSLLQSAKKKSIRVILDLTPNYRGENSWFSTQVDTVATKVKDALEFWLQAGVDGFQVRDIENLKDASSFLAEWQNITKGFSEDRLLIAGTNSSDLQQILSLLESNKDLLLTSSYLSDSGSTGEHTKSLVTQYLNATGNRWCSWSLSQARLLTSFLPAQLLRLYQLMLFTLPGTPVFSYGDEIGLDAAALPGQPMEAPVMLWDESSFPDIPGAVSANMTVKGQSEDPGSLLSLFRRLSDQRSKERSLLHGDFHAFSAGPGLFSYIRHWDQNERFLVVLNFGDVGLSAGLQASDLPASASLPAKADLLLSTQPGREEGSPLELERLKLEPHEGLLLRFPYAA
# T2: human TfR apical domain (human)
# T2 chain: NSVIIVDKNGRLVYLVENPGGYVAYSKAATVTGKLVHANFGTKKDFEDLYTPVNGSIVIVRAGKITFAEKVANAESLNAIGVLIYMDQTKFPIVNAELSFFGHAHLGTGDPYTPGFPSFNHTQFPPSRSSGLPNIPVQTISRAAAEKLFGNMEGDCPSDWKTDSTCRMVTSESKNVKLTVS
# B1: LLB1-3-16 (protein)
# chain: APELLGGPSVFLFPPKPKDTLMISRTPEVTCVVVDVSHEDPEVKFNWYVDGVEVHNAKTKPREEQYNSTYRVVSVLTVLHQDWLNGKEYKCKVSNKALPAPIEKTISKAKGQPREPQVYTLPPSRDELTKNQVSLTCLVKGFYPSDIAVEWRTYKPYETNYKTTPPVLDSDGSFFLYSKLTVDKSRWQQGDIFVCDVLHEALHNHFTIKKLSLSPGK
# B2: LLB1-3-16-2 (protein)
# chain: B1 chain with L198M
# B3: LLB2-10-8-d6 (protein)
# chain: APELLGGPSVFLFPPKPKDTLMISRTPEVTCVVVDVSHEDPEVKFNWYVDGVEVHNAKTKPREEQYNSTYRVVSVLTVLHQDWLNGKEYKCKVSNKALPAPIEKTISKAKGQPREPQVYTLPPSRDELTKNQVSLTCLVKGFYPSDIAVLWNSRFVLENNYKTTPPVLDSDGSFFLYSKLTVDKSRWQQGNVFACNVYHEALHNHYTFKNLALSPGK
# B4: LLB2-10-8.d28 (protein)
# chain: B3 chain with N152S, F155Y
# B5: LLB2.10.8.10.3 (protein)
# chain: B3 chain with N191E, V192I, A212R
# B6: LLB2.10.8.14.3 (protein)
# chain: B3 chain with N191E, V192I, Y206R, A212R
# B7: LLB2-10-8 (protein)
# chain: B3 chain with N191E, V192I
# B8: LLB2-10-8-d12 (protein)
# chain: B3 chain with R154H, F155Y, V156E
# B9: LLB2-37 (protein)
# chain: B3 chain with R154Q, V156H, V192I, A212L
# B10: 42.2.3-1H (protein)
# chain: APELLGGPSVFLFPPKPKDTLMISRTPEVTCVVVDVSHEDPEVKFNWYVDGVEVHNAKTKPREEQYNSTYRVVSVLTVLHQDWLNGKEYKCKVSNKALPAPIEKTISKAKGQPREPQVYTLPPSRDELTKNQVSLTCLVKGFYPSDIAVEWFYGNAKETNYKTTPPVLDSDGSFFLYSKLTVDKSRWQQGNLFACEVMHEALHNHYTYKLLSLSPGK
# B11: 42.8.17 (protein)
# chain: B10 chain with Y153S, N155A, A156Q, E158L
# B12: 42.8.15 (protein)
# chain: B10 chain with Y153S, N155A, A156Q, T159S
# B13: 42.8.80 (protein)
# chain: B10 chain with Y153S, G154E, N155G, A156S
# B14: 6.5.11.5.42.1 (protein)
# chain: B10 chain with Y153S, N155G
# B15: 42.8.196 (protein)
# chain: B10 chain with G154E, N155A, A156Q, E158L, T159N
# B16: 35.d1.12 (protein)
# chain: ASTKGPSVFPLAPSSKSTSGGTAALGCLVKDYFPEPVTVSWNSGALTSGVHTFPAVLQSSGLYSLSSVVTVPSSSLGTQTYICNVNHKPSNTKVDKKVEPKSCDKTHTCPPCPAPELLGGPSVFLFPPKPKDTLMISRTPEVTCVVVDVSHEDPEVKFNWYVDGVEVHNAKTKPREEQYNSTYRVVSVLTVLHQDWLNGKEYKCKVSNKALPAPIEKTISKAKGQPREPQVYTLPPSRDELTKNQVSLTCLVKGFYPSDIAVEWESFGTEWSNYKTTPPVLDSDGSFFLYSKLTVSKSEWQQGFVFSCSVMHEALHNHYTQKSLSLSPELQLEESCAEAQDGELDGLWTT
# B17: 35.d1.20 (protein)
# chain: B16 chain with F267Y, S272V
# B18: 35.d1.7 (protein)
# chain: B16 chain with F267Y, N273S, F304Y
# B19: 35.d1.17 (protein)
# chain: B16 chain with S272T
# B20: 35.d1.1 (protein)
# chain: B16 chain with F267Y, T269N, N273S, S296T
# B21: 35.d1.16 (protein)
# chain: B16 chain with T269N
# B22: 35.d1.15 (protein)
# chain: B16 chain with F267Y, F304Y
# B23: 35.d1.14 (protein)
# chain: B16 chain with F267Y, S272T
# B24: 35.d1.3 (protein)
# chain: B16 chain with F267Y, N273S, S296T, F304Y
# B25: 35.d1.22 (protein)
# chain: B16 chain with F267Y, T269N, S298E
# B26: 35.d1.4 (protein)
# chain: B16 chain with N273S
# B27: 35.d1.2 (protein)
# chain: B16 chain with F267Y, S272T, N273S, S296T
# B28: 35.d1.5 (protein)
# chain: B16 chain with F267Y, T269N, N273S
# B29: 35.d1.6 (protein)
# chain: B16 chain with F267Y, S272T, N273S
# B30: 35.d1.13 (protein)
# chain: B16 chain with F267Y, T269N
# B31: 35.d1.18 (protein)
# chain: B16 chain with F304Y
# B32: 35.d1.23 (protein)
# chain: B16 chain with F267Y, S272T, S298E
# B33: 35.d1.24 (protein)
# chain: B16 chain with F267Y, S298E, F304Y
# B34: 35.d1.21 (protein)
# chain: B16 chain with F267Y, S272V, F304Y
# B35: 35.d1.8 (protein)
# chain: B16 chain with F267Y, T269N, S296T
# B36: 35.d1.11 (protein)
# chain: B16 chain with F267Y, S296T, F304Y
# B37: 35.d1.19 (protein)
# chain: B16 chain with S272V, F304Y
# B38: CH3C.1.35 (protein)
# chain: B16 chain with F267Y, N273S, S296T
# Target: T1, human CD98hc
# Test: SPR
row,Kd [µM],Binder
1,0.032,B1
2,0.175,B2
3,0.55,B3
4,4.2,B4
5,0.043,B5
6,0.02,B6
7,0.17,B7
8,2.1,B8
9,0.61,B9

# Target: T2, human TfR apical domain
# Test: SPR
row,Kd [µM],Binder
1,0.22,B10
2,10.4,B11
3,5.96,B12
4,2.38,B13
5,0.84,B14
6,0.924,B15

# Target: T2, human TfR apical domain
# Test: SPR
# Remark: another data set of the same source
row,Kd [µM],Binder
1,1.6,B16
2,3.6,B17
3,3,B18
4,18.8,B19
5,6.2,B20
6,35.6,B21
7,3.6,B22
8,11.7,B23
9,1.3,B24
10,5.2,B25
11,1.4,B26
12,4.3,B27
13,13.6,B28
14,11.2,B29
15,18.5,B30
16,4.4,B31
17,3.5,B32
18,1.1,B33
19,14.1,B34
20,13.2,B35
21,2.5,B36
22,16,B37
23,0.61,B38
